Data published in patent US20190389923A1 (BIORION TECHNOLOGIES B V, published 2019).
Bridge positions count the residues as written; N and C are the ends. Ends that are not written are not given here.

Tests used:
[1] = biological target: T1, PDGF-beta receptor on mouse 3T3 fibroblasts (mouse, UniProt P05622 32-1098); experiment: FITC-BiPPB on mouse 3T3 fibroblasts, fluorescence microscopy
T1 construct: whole, on cells; also called PDGFß-receptor; PDGF-receptor
Protocol: (§1) Cells were seeded in the 8-well glass plates (Lab-Tek, Nunc, Naperville, Ill.) at 30,000 cells/well in the culture medium. […] After 2 h, cells were washed 3 to 4 times with cold PBS and fixed with 4% paraformaldehyde. The nuclei were counterstained with DAPI and mounted in citifluor (anti-fade reagent) and visualized under fluorescent microscope.
(§2) Similar binding experiments were performed in primary freshly isolated human myofibroblasts, mouse 3T3 fibroblasts and human hepatic stellate cells (LX2).

[2] = biological target: T2, PDGF-beta receptor on primary freshly isolated rat hepatic stellate cells (rat, UniProt Q05030 32-1097); experiment: FITC-BiPPB on primary rat hepatic stellate cells, fluorescence microscopy
T2 construct: whole, on cells; also called PDGFß-receptor; PDGF-βR
Protocol: as §1

[3] = biological target: T3, PDGF-beta receptor on human cells (primary human myofibroblasts; human hepatic stellate cells LX2) (human, UniProt P09619 33-1106); experiment: FITC-BiPPB on primary freshly isolated human myofibroblasts, fluorescence microscopy
T3 construct: whole, on cells; also called PDGFß-receptor; PDGF-βR
Protocol: as §1, §2

Measured: binding result

T1 sequence (P05622 32-1098): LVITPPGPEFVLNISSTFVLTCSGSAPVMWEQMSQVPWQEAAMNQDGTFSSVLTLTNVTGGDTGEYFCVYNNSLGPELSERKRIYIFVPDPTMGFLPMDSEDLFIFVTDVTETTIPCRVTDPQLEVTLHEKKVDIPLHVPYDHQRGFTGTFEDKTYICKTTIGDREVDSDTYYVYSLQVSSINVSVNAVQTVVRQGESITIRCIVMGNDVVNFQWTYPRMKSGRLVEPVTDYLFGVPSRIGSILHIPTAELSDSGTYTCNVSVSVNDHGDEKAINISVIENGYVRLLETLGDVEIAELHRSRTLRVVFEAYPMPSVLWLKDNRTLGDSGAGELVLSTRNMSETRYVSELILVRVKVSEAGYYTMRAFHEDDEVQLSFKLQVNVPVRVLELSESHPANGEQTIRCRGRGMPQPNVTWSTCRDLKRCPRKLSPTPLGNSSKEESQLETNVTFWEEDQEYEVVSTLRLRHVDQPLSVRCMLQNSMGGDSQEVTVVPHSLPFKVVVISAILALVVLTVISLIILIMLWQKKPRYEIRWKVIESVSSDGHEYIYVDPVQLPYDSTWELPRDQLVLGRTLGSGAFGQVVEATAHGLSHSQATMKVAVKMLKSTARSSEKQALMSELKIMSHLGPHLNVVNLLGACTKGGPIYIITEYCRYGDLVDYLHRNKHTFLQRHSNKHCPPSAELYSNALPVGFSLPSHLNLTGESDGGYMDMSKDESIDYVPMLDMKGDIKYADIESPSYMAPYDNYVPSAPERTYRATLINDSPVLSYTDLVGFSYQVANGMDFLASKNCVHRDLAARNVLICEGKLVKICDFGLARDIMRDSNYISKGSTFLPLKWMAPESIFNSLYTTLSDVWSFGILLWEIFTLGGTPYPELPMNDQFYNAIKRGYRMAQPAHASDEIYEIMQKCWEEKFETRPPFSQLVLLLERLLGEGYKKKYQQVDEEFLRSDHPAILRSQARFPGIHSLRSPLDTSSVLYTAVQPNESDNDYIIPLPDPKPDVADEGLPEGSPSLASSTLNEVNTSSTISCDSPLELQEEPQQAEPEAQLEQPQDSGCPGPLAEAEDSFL
T3 sequence (P09619 33-1106): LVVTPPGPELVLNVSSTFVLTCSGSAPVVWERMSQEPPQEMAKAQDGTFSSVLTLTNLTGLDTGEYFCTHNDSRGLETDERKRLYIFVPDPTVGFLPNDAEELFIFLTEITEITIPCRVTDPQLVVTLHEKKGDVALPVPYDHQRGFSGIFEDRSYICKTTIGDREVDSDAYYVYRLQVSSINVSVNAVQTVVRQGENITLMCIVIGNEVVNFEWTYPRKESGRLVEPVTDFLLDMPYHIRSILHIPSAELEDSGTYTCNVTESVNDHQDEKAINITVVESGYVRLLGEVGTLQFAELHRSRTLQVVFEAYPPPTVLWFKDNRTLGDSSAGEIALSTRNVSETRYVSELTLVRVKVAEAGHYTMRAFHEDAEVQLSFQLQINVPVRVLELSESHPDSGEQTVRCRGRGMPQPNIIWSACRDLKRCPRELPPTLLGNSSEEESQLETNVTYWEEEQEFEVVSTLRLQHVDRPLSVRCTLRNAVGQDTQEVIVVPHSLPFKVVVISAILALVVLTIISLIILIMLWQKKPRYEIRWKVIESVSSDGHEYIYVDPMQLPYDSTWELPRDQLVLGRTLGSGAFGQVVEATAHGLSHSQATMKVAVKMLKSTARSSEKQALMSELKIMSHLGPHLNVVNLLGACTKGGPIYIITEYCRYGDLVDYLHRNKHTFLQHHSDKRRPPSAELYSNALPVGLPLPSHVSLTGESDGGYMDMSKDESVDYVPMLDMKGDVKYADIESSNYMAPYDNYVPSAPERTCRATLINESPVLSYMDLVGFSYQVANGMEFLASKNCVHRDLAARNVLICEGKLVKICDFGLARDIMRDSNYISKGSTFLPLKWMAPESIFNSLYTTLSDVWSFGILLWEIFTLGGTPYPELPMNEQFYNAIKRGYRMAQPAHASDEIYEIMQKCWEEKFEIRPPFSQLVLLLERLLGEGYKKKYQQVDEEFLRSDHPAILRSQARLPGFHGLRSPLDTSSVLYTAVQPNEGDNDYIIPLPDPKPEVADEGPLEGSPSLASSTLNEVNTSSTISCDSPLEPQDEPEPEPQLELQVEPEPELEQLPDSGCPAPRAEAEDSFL
T2 sequence (Q05030 32-1097): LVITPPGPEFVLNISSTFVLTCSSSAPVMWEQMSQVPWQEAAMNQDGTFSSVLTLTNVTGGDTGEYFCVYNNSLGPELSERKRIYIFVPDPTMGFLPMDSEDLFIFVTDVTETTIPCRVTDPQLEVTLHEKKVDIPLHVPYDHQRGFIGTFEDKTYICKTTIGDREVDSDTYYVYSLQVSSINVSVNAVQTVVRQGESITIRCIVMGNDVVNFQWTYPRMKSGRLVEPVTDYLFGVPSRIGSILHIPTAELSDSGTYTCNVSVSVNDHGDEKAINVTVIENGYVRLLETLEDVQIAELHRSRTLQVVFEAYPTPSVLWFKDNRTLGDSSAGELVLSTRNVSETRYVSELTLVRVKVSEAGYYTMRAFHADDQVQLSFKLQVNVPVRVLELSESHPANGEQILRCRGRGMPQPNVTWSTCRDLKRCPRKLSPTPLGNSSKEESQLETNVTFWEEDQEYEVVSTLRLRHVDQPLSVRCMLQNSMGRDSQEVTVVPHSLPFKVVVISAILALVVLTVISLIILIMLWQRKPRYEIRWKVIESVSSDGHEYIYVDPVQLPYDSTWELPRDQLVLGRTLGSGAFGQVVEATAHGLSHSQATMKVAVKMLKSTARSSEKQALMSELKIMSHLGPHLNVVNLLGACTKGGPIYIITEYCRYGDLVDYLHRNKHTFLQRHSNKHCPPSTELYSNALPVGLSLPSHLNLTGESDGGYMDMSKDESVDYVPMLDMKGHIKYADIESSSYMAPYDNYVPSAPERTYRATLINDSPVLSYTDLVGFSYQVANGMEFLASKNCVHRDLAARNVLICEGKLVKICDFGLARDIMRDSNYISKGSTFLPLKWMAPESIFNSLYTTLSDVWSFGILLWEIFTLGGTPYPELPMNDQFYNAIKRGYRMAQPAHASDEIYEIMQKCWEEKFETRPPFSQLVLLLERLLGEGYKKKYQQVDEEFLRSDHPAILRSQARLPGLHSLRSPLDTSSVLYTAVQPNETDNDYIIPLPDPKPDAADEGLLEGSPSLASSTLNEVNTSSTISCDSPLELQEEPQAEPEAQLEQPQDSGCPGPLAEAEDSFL

B1: BiPPB (bicyclic PDGF-beta-receptor binding peptide), C(1)SRNLIDC(1)GGGDGGC(2)SRNLIDC(2), FITC-labelled (peptide)
peptide: CSRNLIDCGGGDGGCSRNLIDC
modifications: disulfide 1-8, 15-22; also: FITC label (site not given here)
notes: Used on primary rat hepatic stellate cells; also called FITC-coupled BiPPB
binds: all assays above
